Measured values as given in article PMC11253605.

Molecular target: T1, IFIT2 (GST-Ifit2, wild type) (Mus musculus, UniProt Q64112 1-472)
T1 sequence: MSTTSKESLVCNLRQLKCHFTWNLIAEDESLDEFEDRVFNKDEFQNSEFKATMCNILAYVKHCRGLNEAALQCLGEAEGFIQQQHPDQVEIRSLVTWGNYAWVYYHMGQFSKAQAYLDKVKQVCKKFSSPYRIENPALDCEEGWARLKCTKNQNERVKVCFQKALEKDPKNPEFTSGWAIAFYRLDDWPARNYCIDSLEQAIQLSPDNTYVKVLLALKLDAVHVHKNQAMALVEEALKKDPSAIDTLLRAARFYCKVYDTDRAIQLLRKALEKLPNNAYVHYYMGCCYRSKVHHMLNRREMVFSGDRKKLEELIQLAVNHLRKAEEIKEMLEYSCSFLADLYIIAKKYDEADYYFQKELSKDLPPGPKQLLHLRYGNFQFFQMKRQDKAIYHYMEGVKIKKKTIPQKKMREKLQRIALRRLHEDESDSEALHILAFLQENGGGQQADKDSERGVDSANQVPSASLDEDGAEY
Test: EMSA; 250 nM protein; at least two complexes; EMSA: 10 fmol labeled RNA in 10 uL, 250 nM protein, 50 mM Tris pH 8, 90 mM NaCl, 1 mM MgCl2, 9% glycerol, 0.05% Triton X-100, 30 min on ice; 6% native PAGE at 4 C
Settings: protein: recombinant; tags: N-terminal GST (pGEX-6P-3); chain copies: 2; label: 5'-32P (T4 PNK); single strand

AUUAAUUUAUAAUUUAAAUUAUUUUCUACUUU (ssRNA) [32-nt AU-rich ssRNA]: binds.
